From patent publication US20250066509A1
Substitutions are numbered along the chain they refer to.

B1: CB-8 (antibody, V domains shown)
VH: EVQLVQSGAEVKKPGASVKVSCKASGYTFTSYGISWVRQAPGQGLEWMGWISAYNGNTNYAQKLQGRVTMTTDTSTSTAYMELRSLRSDDTAVYYCATLYGSGSLYYWGQGTLVTVSS
VL: DIVMTQSPSSLSAPVGDRVTITCQASQDIRNYINWFQQKPGKAPKLLIYAASSLQSGVPSRFSGSGSGTDFTLTISSLQPEDFATYYCQQSYSTPQWTFGQGTKVEIK
B2: CB-8-13 (antibody, human IgG1, V domains shown)
VH: B1 VH with T28R, N57R
VL: B1 VL with S53R
B3: CB-8-14 (antibody, human IgG1, V domains shown)
VH: B1 VH with T30R, N55T
VL: B1 VL with L54R
B4: CB-8-23 (antibody, human IgG1, V domains shown)
VH: B1 VH with Y32G, N57R
VL: B1 VL with S53F
B5: CB-8-24 (antibody, V domains shown)
VH: B1 VH with Y100L, G101P
VL: B1 VL
B6: CB-8-26 (antibody, human IgG1, V domains shown)
VH: B1 VH with T30K, N57R
VL: B1 VL with S53G
B7: CB-8-37 (antibody, human IgG1, V domains shown)
VH: B1 VH with T28A, N55S
VL: B1 VL with S53F
B8: CB-8-40 (antibody, human IgG1, V domains shown)
VH: B1 VH with N55S
VL: B1 VL with S53Y
B9: CB-8-41 (antibody, human IgG1, V domains shown)
VH: B1 VH with T28L, N55T
VL: B1 VL with S53H

Each binder was assayed against human FGFR1c/βKlotho receptor (human), P11362 (assay: cell-based or functional assay).
Sequence of human FGFR1c/βKlotho receptor (human), P11362 (P11362 22-822, chain 1 of 2): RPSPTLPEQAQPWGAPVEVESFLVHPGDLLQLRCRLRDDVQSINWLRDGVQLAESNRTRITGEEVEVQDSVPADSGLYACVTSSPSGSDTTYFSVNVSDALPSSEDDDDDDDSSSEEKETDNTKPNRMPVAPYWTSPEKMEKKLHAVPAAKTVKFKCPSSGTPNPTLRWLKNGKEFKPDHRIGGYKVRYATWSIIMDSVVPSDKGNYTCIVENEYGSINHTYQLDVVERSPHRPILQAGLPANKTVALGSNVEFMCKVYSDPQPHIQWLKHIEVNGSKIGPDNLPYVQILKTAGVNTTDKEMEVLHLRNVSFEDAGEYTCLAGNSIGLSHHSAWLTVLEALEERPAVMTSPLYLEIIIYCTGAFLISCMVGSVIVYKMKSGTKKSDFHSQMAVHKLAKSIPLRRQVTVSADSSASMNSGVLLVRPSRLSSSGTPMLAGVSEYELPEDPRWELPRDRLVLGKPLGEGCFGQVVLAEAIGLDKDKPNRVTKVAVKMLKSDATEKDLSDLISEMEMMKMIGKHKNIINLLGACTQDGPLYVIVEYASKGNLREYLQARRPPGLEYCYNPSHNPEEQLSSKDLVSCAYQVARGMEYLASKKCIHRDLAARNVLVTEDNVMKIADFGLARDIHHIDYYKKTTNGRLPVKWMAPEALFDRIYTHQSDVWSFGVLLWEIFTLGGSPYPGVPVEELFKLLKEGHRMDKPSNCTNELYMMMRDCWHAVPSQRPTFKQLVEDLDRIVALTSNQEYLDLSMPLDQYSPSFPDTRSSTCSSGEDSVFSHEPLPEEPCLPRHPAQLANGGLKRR
Sequence of human FGFR1c/βKlotho receptor (human), P11362 (chain, as listed by the source, chain 2 of 2): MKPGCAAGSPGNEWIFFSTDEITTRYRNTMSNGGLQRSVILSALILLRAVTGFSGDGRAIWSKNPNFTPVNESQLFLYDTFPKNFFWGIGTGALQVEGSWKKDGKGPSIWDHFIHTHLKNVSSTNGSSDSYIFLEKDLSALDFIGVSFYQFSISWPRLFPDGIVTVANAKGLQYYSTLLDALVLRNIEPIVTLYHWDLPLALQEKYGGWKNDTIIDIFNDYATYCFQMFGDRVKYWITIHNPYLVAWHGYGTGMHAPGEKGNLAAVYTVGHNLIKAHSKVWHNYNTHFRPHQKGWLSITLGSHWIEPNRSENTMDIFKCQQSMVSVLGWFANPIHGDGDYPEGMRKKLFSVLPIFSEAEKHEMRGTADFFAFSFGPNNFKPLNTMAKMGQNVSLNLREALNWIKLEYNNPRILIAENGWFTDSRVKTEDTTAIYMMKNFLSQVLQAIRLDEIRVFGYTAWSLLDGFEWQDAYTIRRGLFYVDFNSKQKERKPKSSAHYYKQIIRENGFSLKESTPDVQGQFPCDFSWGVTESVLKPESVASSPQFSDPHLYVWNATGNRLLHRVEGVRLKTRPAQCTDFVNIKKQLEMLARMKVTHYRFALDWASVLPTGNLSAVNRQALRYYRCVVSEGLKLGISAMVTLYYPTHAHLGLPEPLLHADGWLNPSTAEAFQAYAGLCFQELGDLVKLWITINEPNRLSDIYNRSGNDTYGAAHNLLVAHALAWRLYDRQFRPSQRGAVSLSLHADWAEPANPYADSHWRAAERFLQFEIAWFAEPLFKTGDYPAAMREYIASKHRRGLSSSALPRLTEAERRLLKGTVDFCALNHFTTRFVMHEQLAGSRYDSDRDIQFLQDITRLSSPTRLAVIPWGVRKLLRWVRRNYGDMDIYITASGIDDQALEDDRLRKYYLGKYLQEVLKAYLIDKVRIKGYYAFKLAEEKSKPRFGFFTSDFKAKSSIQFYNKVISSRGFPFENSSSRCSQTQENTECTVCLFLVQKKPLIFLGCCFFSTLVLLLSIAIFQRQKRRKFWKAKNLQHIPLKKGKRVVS

Binder	EC50, luciferase reporter-based assay (receptor activation)	EC50 for antibody-induced cell activation, as determined by the reporter-based assay
B1	1.31 nM	3.74 nM
B2	–	1.39 nM
B3	–	0.95 nM
B4	–	0.57 nM
B5	–	0.68 nM
B6	–	0.66 nM
B7	–	0.92 nM
B8	–	0.89 nM
B9	–	1.43 nM
